tested on: c-Src; assay: phosphorylation enrichment, bacterial display (enrichment ratio); higher = better substrate or ligand; peptides without Tyr show the background
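Note: 11-residue human phosphosite peptides and single-mutation variants displayed on the E. coli surface, counted by deep sequencing, each peptide's frequency after selection divided by its frequency in the unselected input library; frequency after pTyr selection over input frequency; kinase dosed for 20-30% of maximal phosphorylation in three min.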

| Sequence | phosphorylation enrichment |
| --- | --- |
| RWQQLYDTLNA [EIF3M_Y351_Q346R] | 3.71 |
| EFNLMYDGAKE [IRF6_Y97_T100A] | 0.584 |
| WGTAEYDSVVA [MAP1A_Y1883] | 0.819 |
| KMATAYIRSMS [BCO1_Y264_R267S] | 0.385 |
| SLDLSYFPTSS [EMD_Y181_YF] | 0.502 |
| RLNWIYYKDQT [RS1_Y165] | 0.616 |
| PGQAAYQKVVA [HBB_Y131_V127G] | 0.579 |
| SPLTDYSPQLQ [OTC_Y345_L341P] | 0.496 |
| RRGTGYTLPLP [MAGEC3_Y152_S155P] | 0.831 |
| GHLFAYDWISI [BEST1_Y227_YF] | 0.915 |
| AGIVVYNIIGW [MYH7_Y588_D587V] | 2.14 |
| TDLAFYLVRKG [ASL_Y376_YF] | 0.361 |
| PAGSGYPAYLG [ATP6V1A_Y374_D371G] | 0.417 |
| CNTIHYNYMCN [TP53_Y234_T230N] | 0.532 |
| FEEVVYQAMEE [TACC3_Y684] | 3.34 |
| GVRLYYRVMES [RB1_Y454] | 0.333 |
| CGADSYEMEED [EGFR_Y316] | 0.483 |

| Sequence | phosphorylation enrichment |
| --- | --- |
| IYETDYYRKGG [INSR_Y1189] | 1.16 |
| EIIPFYGMSSF [FNDC3B_Y175_T179S_YF] | 0.822 |
| LICRRYLVMQR [IL3RA_Y328_V323L] | 1.01 |
| NDTAGYFIIGG [SEL1L3_Y399] | 0.584 |
| TWSPKYTLRSH [STRN3_Y474_N471S] | 0.348 |
| CTTLHYNFMCN [TP53_Y234_I232L_YF] | 0.538 |
| GRQGIYTENER [GPR143_Y231] | 0.581 |
| MFRVQYNSSVD [LRFN1_Y458_Q455R_YF] | 0.386 |
| NVVQEYERVII [NPHS2_Y131_K126N] | 0.485 |
| DGFTDYAEFAK [MCFD2_Y138_I136T_YF] | 1.11 |
| VSYGEYRYRSV [CFTR_Y515_D513G] | 3.22 |
| SGASGYSATST [CERT1_Y143] | 0.417 |
| LPVHFYGHVEH [PYGM_Y204] | 0.803 |
| LLQAEYWHDPI [PPT1_Y185_V181L] | 0.864 |
| AMGPVYQAAAL [HYOU1_Y421_A419P] | 4.05 |
| PVFEVYPLLNC [GATA1_Y78_Q76E] | 0.758 |

molecular target: MERTK (UniProt Q12866); assay: as above
Sequence (Q12866 whole entry, looked up): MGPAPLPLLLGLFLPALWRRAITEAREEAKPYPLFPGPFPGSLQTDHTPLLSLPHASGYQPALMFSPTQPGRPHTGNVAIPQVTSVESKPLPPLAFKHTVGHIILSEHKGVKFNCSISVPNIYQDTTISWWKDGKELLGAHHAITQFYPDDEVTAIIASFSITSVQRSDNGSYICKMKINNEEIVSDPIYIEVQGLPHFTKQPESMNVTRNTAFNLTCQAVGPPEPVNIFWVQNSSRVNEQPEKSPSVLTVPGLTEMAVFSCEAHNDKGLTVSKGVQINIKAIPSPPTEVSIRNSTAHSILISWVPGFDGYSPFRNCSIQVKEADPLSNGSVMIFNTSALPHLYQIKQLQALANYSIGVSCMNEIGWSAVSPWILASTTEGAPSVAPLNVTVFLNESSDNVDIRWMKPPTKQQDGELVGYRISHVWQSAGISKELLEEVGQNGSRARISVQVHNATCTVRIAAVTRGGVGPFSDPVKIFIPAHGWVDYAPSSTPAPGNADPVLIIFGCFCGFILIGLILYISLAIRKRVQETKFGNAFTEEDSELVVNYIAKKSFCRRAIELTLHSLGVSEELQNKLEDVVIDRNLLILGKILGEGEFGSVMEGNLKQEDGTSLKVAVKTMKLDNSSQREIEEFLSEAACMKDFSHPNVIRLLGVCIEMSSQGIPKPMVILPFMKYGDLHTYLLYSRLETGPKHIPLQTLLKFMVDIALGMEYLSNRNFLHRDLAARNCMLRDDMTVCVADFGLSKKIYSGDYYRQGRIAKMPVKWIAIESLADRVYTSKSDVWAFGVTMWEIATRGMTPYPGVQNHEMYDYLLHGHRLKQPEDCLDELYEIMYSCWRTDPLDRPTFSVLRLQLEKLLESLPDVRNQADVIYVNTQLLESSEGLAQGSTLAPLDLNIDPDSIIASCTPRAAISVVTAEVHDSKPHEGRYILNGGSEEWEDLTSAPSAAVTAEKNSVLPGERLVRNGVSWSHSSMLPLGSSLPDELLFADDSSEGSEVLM

| Sequence | phosphorylation enrichment |
| --- | --- |
| RWQQLYDTLNA [EIF3M_Y351_Q346R] | 6.56 |
| EFNLMYDGAKE [IRF6_Y97_T100A] | 0.517 |
| WGTAEYDSVVA [MAP1A_Y1883] | 0.456 |
| KMATAYIRSMS [BCO1_Y264_R267S] | 0.396 |
| SLDLSYFPTSS [EMD_Y181_YF] | 0.56 |
| RLNWIYYKDQT [RS1_Y165] | 0.672 |
| PGQAAYQKVVA [HBB_Y131_V127G] | 0.514 |
| SPLTDYSPQLQ [OTC_Y345_L341P] | 0.479 |
| RRGTGYTLPLP [MAGEC3_Y152_S155P] | 0.838 |
| GHLFAYDWISI [BEST1_Y227_YF] | 6.92 |
| AGIVVYNIIGW [MYH7_Y588_D587V] | 1.17 |
| TDLAFYLVRKG [ASL_Y376_YF] | 0.506 |
| PAGSGYPAYLG [ATP6V1A_Y374_D371G] | 0.442 |
| CNTIHYNYMCN [TP53_Y234_T230N] | 0.521 |
| FEEVVYQAMEE [TACC3_Y684] | 0.744 |
| GVRLYYRVMES [RB1_Y454] | 0.419 |
| CGADSYEMEED [EGFR_Y316] | 0.549 |

| Sequence | phosphorylation enrichment |
| --- | --- |
| IYETDYYRKGG [INSR_Y1189] | 3.92 |
| EIIPFYGMSSF [FNDC3B_Y175_T179S_YF] | 1.54 |
| LICRRYLVMQR [IL3RA_Y328_V323L] | 1.01 |
| NDTAGYFIIGG [SEL1L3_Y399] | 0.834 |
| TWSPKYTLRSH [STRN3_Y474_N471S] | 0.426 |
| CTTLHYNFMCN [TP53_Y234_I232L_YF] | 0.424 |
| GRQGIYTENER [GPR143_Y231] | 0.456 |
| MFRVQYNSSVD [LRFN1_Y458_Q455R_YF] | 0.349 |
| NVVQEYERVII [NPHS2_Y131_K126N] | 0.442 |
| DGFTDYAEFAK [MCFD2_Y138_I136T_YF] | 0.542 |
| VSYGEYRYRSV [CFTR_Y515_D513G] | 0.363 |
| SGASGYSATST [CERT1_Y143] | 0.44 |
| LPVHFYGHVEH [PYGM_Y204] | 1.07 |
| LLQAEYWHDPI [PPT1_Y185_V181L] | 0.726 |
| AMGPVYQAAAL [HYOU1_Y421_A419P] | 1.03 |
| PVFEVYPLLNC [GATA1_Y78_Q76E] | 0.559 |

tested on: c-Abl (mouse); assay: as above

| Sequence | phosphorylation enrichment |
| --- | --- |
| RWQQLYDTLNA [EIF3M_Y351_Q346R] | 0.788 |
| EFNLMYDGAKE [IRF6_Y97_T100A] | 0.857 |
| WGTAEYDSVVA [MAP1A_Y1883] | 0.703 |
| KMATAYIRSMS [BCO1_Y264_R267S] | 0.516 |
| SLDLSYFPTSS [EMD_Y181_YF] | 0.632 |
| RLNWIYYKDQT [RS1_Y165] | 0.676 |
| PGQAAYQKVVA [HBB_Y131_V127G] | 0.491 |
| SPLTDYSPQLQ [OTC_Y345_L341P] | 0.661 |
| RRGTGYTLPLP [MAGEC3_Y152_S155P] | 0.683 |
| GHLFAYDWISI [BEST1_Y227_YF] | 0.526 |
| AGIVVYNIIGW [MYH7_Y588_D587V] | 1.51 |
| TDLAFYLVRKG [ASL_Y376_YF] | 0.611 |
| PAGSGYPAYLG [ATP6V1A_Y374_D371G] | 0.525 |
| CNTIHYNYMCN [TP53_Y234_T230N] | 0.713 |
| FEEVVYQAMEE [TACC3_Y684] | 1.62 |
| GVRLYYRVMES [RB1_Y454] | 0.731 |
| CGADSYEMEED [EGFR_Y316] | 0.827 |

| Sequence | phosphorylation enrichment |
| --- | --- |
| IYETDYYRKGG [INSR_Y1189] | 0.626 |
| EIIPFYGMSSF [FNDC3B_Y175_T179S_YF] | 0.865 |
| LICRRYLVMQR [IL3RA_Y328_V323L] | 1.22 |
| NDTAGYFIIGG [SEL1L3_Y399] | 0.78 |
| TWSPKYTLRSH [STRN3_Y474_N471S] | 0.52 |
| CTTLHYNFMCN [TP53_Y234_I232L_YF] | 0.545 |
| GRQGIYTENER [GPR143_Y231] | 0.581 |
| MFRVQYNSSVD [LRFN1_Y458_Q455R_YF] | 0.552 |
| NVVQEYERVII [NPHS2_Y131_K126N] | 0.633 |
| DGFTDYAEFAK [MCFD2_Y138_I136T_YF] | 0.811 |
| VSYGEYRYRSV [CFTR_Y515_D513G] | 0.605 |
| SGASGYSATST [CERT1_Y143] | 0.468 |
| LPVHFYGHVEH [PYGM_Y204] | 1.26 |
| LLQAEYWHDPI [PPT1_Y185_V181L] | 1.62 |
| AMGPVYQAAAL [HYOU1_Y421_A419P] | 3.43 |
| PVFEVYPLLNC [GATA1_Y78_Q76E] | 1.03 |

molecular target: EPHB1 (UniProt P54762); assay: as above
Sequence (P54762 whole entry, looked up): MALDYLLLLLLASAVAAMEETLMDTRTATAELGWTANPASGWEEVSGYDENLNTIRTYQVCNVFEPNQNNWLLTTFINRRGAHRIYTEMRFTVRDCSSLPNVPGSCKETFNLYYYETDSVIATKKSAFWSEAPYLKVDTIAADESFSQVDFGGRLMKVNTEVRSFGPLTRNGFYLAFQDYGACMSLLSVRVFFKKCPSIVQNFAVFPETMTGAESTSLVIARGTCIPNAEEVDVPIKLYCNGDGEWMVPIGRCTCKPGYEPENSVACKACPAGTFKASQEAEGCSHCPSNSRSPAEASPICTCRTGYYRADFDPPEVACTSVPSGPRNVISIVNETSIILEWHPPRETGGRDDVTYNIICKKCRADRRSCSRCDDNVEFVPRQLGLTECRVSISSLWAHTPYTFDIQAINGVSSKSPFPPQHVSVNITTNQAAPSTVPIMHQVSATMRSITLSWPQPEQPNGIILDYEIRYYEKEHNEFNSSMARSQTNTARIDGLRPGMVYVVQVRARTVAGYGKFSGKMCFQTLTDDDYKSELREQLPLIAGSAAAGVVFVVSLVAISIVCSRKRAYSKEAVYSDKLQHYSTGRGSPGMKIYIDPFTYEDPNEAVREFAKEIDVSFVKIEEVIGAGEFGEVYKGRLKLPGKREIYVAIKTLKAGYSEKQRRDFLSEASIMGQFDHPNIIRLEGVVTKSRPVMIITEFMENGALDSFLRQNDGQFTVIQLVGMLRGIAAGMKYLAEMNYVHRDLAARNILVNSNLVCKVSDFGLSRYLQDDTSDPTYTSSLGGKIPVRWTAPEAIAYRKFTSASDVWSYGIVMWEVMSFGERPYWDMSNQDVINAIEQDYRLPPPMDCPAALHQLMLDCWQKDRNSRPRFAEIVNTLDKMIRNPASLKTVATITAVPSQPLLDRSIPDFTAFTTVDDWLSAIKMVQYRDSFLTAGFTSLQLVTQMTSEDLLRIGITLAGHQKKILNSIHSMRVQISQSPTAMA

| Sequence | phosphorylation enrichment |
| --- | --- |
| RWQQLYDTLNA [EIF3M_Y351_Q346R] | 1.95 |
| EFNLMYDGAKE [IRF6_Y97_T100A] | 0.593 |
| WGTAEYDSVVA [MAP1A_Y1883] | 0.685 |
| KMATAYIRSMS [BCO1_Y264_R267S] | 0.409 |
| SLDLSYFPTSS [EMD_Y181_YF] | 0.426 |
| RLNWIYYKDQT [RS1_Y165] | 0.985 |
| PGQAAYQKVVA [HBB_Y131_V127G] | 0.517 |
| SPLTDYSPQLQ [OTC_Y345_L341P] | 0.414 |
| RRGTGYTLPLP [MAGEC3_Y152_S155P] | 0.977 |
| GHLFAYDWISI [BEST1_Y227_YF] | 0.938 |
| AGIVVYNIIGW [MYH7_Y588_D587V] | 0.919 |
| TDLAFYLVRKG [ASL_Y376_YF] | 0.65 |
| PAGSGYPAYLG [ATP6V1A_Y374_D371G] | 1.22 |
| CNTIHYNYMCN [TP53_Y234_T230N] | 0.575 |
| FEEVVYQAMEE [TACC3_Y684] | 0.838 |
| GVRLYYRVMES [RB1_Y454] | 0.587 |
| CGADSYEMEED [EGFR_Y316] | 0.685 |

| Sequence | phosphorylation enrichment |
| --- | --- |
| IYETDYYRKGG [INSR_Y1189] | 0.645 |
| EIIPFYGMSSF [FNDC3B_Y175_T179S_YF] | 0.764 |
| LICRRYLVMQR [IL3RA_Y328_V323L] | 0.827 |
| NDTAGYFIIGG [SEL1L3_Y399] | 0.547 |
| TWSPKYTLRSH [STRN3_Y474_N471S] | 0.593 |
| CTTLHYNFMCN [TP53_Y234_I232L_YF] | 0.361 |
| GRQGIYTENER [GPR143_Y231] | 0.496 |
| MFRVQYNSSVD [LRFN1_Y458_Q455R_YF] | 0.49 |
| NVVQEYERVII [NPHS2_Y131_K126N] | 2.13 |
| DGFTDYAEFAK [MCFD2_Y138_I136T_YF] | 0.88 |
| VSYGEYRYRSV [CFTR_Y515_D513G] | 0.452 |
| SGASGYSATST [CERT1_Y143] | 0.391 |
| LPVHFYGHVEH [PYGM_Y204] | 1.33 |
| LLQAEYWHDPI [PPT1_Y185_V181L] | 0.682 |
| AMGPVYQAAAL [HYOU1_Y421_A419P] | 0.933 |
| PVFEVYPLLNC [GATA1_Y78_Q76E] | 0.742 |

From the supplement of paper PMC10065799, “High-throughput profiling of sequence recognition by tyrosine kinases and SH2 domains using bacterial peptide display” (eLife, 2023)
